Key:
[1] = biological target: T1, MIS12 complex (Mis12, Pmf1, Dsn1, Nsl1), wild type, full length (Homo sapiens, UniProt Q9H081 1-205; Q6P1K2 1-205; Q9H410 1-356; Q96IY1 1-281); assay: cryo-EM structure; NDC80C, MIS12C and KNL1C mixed 1:1:1 and run on Superose 6 in 20 mM HEPES pH 8.0, 80 mM NaCl, 1 mM MgCl2, 1 mM TCEP; about 1 mg/ml on UltrAuFoil grids; 3.0 Å (MIS12C heads 3.8 Å); conditions: both partners purified
T1 construct: Mis12, subunit of human MIS12C; Pmf1, subunit of human MIS12C; Dsn1, subunit of human MIS12C; Nsl1, subunit of human MIS12C; The DS tag on Pmf1 is TEV cleavable; a cleavage is not described; also called MIS12C (WT); wild-type MIS12C; source: High-5 insect cells (baculovirus), purified (Strep-Tactin, Resource S, Superdex 200); copies: + + +
T1 sequence (looked up) 1: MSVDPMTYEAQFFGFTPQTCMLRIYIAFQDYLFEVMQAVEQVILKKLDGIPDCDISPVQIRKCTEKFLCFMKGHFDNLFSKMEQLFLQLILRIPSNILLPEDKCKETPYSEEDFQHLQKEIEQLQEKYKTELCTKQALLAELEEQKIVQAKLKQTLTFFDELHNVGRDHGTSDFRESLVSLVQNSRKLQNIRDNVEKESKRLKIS
T1 sequence (looked up) 2: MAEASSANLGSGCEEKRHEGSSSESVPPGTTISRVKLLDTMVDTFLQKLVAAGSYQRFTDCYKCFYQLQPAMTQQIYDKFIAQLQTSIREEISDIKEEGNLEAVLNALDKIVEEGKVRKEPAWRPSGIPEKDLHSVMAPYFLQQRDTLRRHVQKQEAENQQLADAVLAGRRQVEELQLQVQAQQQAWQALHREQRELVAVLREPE
T1 sequence (looked up) 3: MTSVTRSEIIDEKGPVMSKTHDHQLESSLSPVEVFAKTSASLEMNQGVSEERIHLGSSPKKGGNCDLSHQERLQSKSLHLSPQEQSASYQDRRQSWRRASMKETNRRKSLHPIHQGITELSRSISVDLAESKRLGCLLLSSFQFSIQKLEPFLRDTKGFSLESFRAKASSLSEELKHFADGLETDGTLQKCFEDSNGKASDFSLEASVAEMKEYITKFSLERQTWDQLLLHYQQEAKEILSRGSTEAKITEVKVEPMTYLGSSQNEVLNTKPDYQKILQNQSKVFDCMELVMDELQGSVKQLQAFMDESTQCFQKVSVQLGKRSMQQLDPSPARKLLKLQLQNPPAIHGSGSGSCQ
T1 sequence (looked up) 4: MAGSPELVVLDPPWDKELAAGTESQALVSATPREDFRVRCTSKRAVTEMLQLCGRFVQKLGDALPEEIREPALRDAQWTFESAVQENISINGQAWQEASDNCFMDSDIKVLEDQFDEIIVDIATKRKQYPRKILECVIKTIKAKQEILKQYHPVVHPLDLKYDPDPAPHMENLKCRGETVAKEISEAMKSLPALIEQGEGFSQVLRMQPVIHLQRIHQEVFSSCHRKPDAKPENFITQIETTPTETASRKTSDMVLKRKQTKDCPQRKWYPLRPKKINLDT

[2] = biological target: T2, MIS12 complex (Mis12, Pmf1, Dsn1, Nsl1), wild type, full length (Homo sapiens, UniProt Q9H081 1-205; Q6P1K2 1-205; Q9H410 1-356; Q96IY1 1-281); assay: ITC
T2 chain 1: T1 sequence (looked up) 1
T2 chain 2: T1 sequence (looked up) 2
T2 chain 3: T1 sequence (looked up) 3
T2 chain 4: T1 sequence (looked up) 4

[3] = biological target: MIS12 complex with Dsn1 residues 6–113 deleted (Homo sapiens, UniProt Q9H081 1-205; Q6P1K2 1-205; Q9H410 1-356; Q96IY1 1-281, 6–113 residues deleted); assay: ITC
[4] = biological target: T3, MIS12 complex with Dsn1 residues 6–113 deleted (Homo sapiens, UniProt Q9H081 1-205; Q6P1K2 1-205; Q9H410 1-356; Q96IY1 1-281, 6–113 residues deleted); assay: ITC; peptide in the syringe titrated into the MIS12C variant in the cell; 20 °C; 20 mM HEPES pH 7.5, 100 mM NaCl, 1 mM TCEP; single-site binding model; duplicate or triplicate; conditions: both partners purified
T3 construct: Mis12, subunit of human MIS12C; Pmf1, subunit of human MIS12C; Nsl1, subunit of human MIS12C; also called MIS12C^Dsn1ΔN; MIS12C^ΔN-Dsn1; source: High-5 insect cells (baculovirus), purified (Strep-Tactin, Resource S, Superdex 200); copies: + + +
T3 sequence (looked up) 1: T1 sequence (looked up) 1
T3 sequence (looked up) 2: T1 sequence (looked up) 2
T3 sequence (looked up) 3: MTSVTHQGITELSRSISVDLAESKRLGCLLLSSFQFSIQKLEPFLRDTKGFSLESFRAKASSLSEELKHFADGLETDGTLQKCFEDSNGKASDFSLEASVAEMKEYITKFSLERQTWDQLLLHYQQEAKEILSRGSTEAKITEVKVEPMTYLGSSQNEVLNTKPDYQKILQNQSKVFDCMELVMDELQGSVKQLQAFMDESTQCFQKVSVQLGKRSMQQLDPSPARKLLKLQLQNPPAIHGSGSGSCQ
T3 sequence (looked up) 4: T1 sequence (looked up) 4

[5] = biological target: T1, MIS12 complex (Mis12, Pmf1, Dsn1, …); assay: as above; conditions: both partners purified
[6] = biological target: T4, Mis12 (Homo sapiens, UniProt Q9H081 1-205); assay: cryo-EM structure; NDC80C, MIS12C and KNL1C mixed 1:1:1 and run on Superose 6 in 20 mM HEPES pH 8.0, 80 mM NaCl, 1 mM MgCl2, 1 mM TCEP; about 1 mg/ml on UltrAuFoil grids; 3.0 Å (MIS12C heads 3.8 Å); conditions: both partners purified
T4 construct: Mis12, subunit of human MIS12C; Subunit within the KMN network cryo-EM sample; source: High-5 insect cells, expressed and purified as part of MIS12C
T4 sequence (looked up): T1 sequence (looked up) 1

[7] = biological target: T5, Dsn1 (Homo sapiens, UniProt Q9H410 1-356); assay: as above; conditions: both partners purified
T5 construct: Dsn1, subunit of human MIS12C; Subunit within the KMN network cryo-EM sample; residues N-terminal to Arg92 are disordered; source: High-5 insect cells, expressed and purified as part of MIS12C
T5 sequence (looked up): T1 sequence (looked up) 3

[8] = biological target: T6, Knl1 residues 1870–2342 (human, UniProt Q8NG31 1870-2342); assay: as above; conditions: both partners purified
T6 construct: Knl1, human, 2,342-residue protein, residues 1870-2342; coordinates traced R2097–H2342; Subunit within the KMN network cryo-EM sample; also called extended version of the Knl1 C terminus; source: High-5 insect cells, expressed and purified as part of KNL1C
T6 sequence (looked up): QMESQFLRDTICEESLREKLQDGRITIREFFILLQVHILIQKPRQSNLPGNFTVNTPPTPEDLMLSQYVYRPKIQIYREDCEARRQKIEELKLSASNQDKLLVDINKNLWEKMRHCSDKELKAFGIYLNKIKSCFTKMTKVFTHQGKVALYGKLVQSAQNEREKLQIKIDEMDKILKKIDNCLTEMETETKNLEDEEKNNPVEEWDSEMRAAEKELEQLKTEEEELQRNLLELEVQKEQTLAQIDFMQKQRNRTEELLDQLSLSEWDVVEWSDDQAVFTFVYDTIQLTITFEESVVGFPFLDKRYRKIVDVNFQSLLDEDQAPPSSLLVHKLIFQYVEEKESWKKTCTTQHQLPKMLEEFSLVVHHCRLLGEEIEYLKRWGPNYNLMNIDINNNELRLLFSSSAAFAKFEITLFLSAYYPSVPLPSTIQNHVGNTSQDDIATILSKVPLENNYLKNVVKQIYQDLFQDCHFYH

[9] = biological target: T7, MIS12 complex with Nsl1 truncated at the C terminus (Nsl1 1–264; residues 265–281 deleted) (Homo sapiens, UniProt Q9H081 1-205; Q6P1K2 1-205; Q9H410 1-356; Q96IY1 1-264); assay: SEC; MIS12C or MIS12C^Nsl1ΔC mixed with Knl1 2131–2337 or its mutants at 4 µM each; 20 mM HEPES pH 7.8, 150 mM NaCl, 0.5 mM TCEP; Superose 6; fractions on SDS-PAGE; conditions: both partners purified
T7 construct: Mis12, subunit of human MIS12C; Pmf1, subunit of human MIS12C; Dsn1, subunit of human MIS12C; Nsl1, subunit of human MIS12C, residues 1-264; also called MIS12C^Nsl1ΔC; Nsl^1–264; source: High-5 insect cells (baculovirus), purified (Strep-Tactin, Resource S, Superdex 200); copies: + + +
T7 sequence (looked up) 1: T1 sequence (looked up) 1
T7 sequence (looked up) 2: T1 sequence (looked up) 2
T7 sequence (looked up) 3: T1 sequence (looked up) 3
T7 sequence (looked up) 4: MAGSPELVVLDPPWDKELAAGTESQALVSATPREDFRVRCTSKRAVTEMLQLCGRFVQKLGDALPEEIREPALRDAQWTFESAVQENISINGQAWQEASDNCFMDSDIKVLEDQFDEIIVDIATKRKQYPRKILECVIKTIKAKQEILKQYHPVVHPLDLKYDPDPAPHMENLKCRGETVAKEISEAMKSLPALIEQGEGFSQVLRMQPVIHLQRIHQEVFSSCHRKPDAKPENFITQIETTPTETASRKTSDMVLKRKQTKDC

[10] = biological target: T1, MIS12 complex (Mis12, Pmf1, Dsn1, …); assay: as above; conditions: both partners purified

B1: KNL1 complex (Knl1 residues 1870–2342 with ZWINT) (complex, human)
chain 1: T6 sequence (looked up)
chain 2: MEAAETEAEAAALEVLAEVAGILEPVGLQEEAELPAKILVEFVVDSQKKDKLLCSQLQVADFLQNILAQEDTAKGLDPLASEDTSRQKAIAAKEQWKELKATYREHVEAIKIGLTKALTQMEEAQRKRTQLREAFEQLQAKKQMAMEKRRAVQNQWQLQQEKHLQHLAEVSAEVRERKTGTQQELDRVFQKLGNLKQQAEQERDKLQRYQTFLQLLYTLQGKLLFPEAEAEAENLPDDKPQQPTRPQEQSTGDTMGRDPGVSFKAVGLQPAGDVNLP
notes: Knl1, human, 2,342-residue protein, residues 1870-2342; ZWINT, human, constitutive partner of Knl1; Amplified from cDNA; also called Knl1–ZWINT; source: High-5 insect cells (baculovirus), purified (His-tag column, Resource Q)
binding result [1]: binds

B2: Dsn1^92–113 auto-inhibitory peptide, wild type (peptide)
peptide: Ac-RRQSWRRASMKETNRRKSLHPIAW-NH2
notes: Ala-Trp added for determination of concentration by absorption at 280 nm; source: synthetic peptide (Cambridge Research Biochemicals)
Kd [2]: 214 µM
Kd [3]: 4.89 µM
fold increase in binding against wild-type MIS12C [4]: 44 fold
binding result [5]: binds

B3: Pmf1 (natural protein, Homo sapiens, UniProt Q6P1K2 1-205, looked up)
chain: T1 sequence (looked up) 2
notes: Pmf1, subunit of human MIS12C; Subunit within the KMN network cryo-EM sample; source: High-5 insect cells, expressed and purified as part of MIS12C
binding result [6]: binds
binding result [7]: binds
binding result [8]: binds

B4: Knl1 RWD domains, residues 2131–2337, wild type (domain or fragment, H. sapiens, UniProt Q8NG31 2131-2337, looked up)
chain: SLSEWDVVEWSDDQAVFTFVYDTIQLTITFEESVVGFPFLDKRYRKIVDVNFQSLLDEDQAPPSSLLVHKLIFQYVEEKESWKKTCTTQHQLPKMLEEFSLVVHHCRLLGEEIEYLKRWGPNYNLMNIDINNNELRLLFSSSAAFAKFEITLFLSAYYPSVPLPSTIQNHVGNTSQDDIATILSKVPLENNYLKNVVKQIYQDLFQD
notes: Knl1, human, residues 2131-2337 (tandem RWD domains); also called Knl1^2131–2337; wild-type KNL1; source: E. coli BL21 (DE3), purified (Ni-NTA, reverse IMAC, Superdex 75); not shown: His6, N-terminal, cleaved
binding result [9]: binds
binding result [10]: binds
